Stoichiometry N (IGF1 per IGF1R dimer) data for one substance are collected here from paper PMC6783537.

The test addresses full-length mouse IGF1R (MmIGF1R), residues 1–1262, Y951A, D1107N (mouse) (UniProt Q60751). As to the kind of experiment: cryo-EM structure; purified MmIGF1R and HsIGF1 mixed at molar ratio 1:2, 1 h at 4 °C, complex purified by SEC in 20 mM Hepes-Na pH 7.4, 200 mM NaCl, 0.03% DDM; 4.3 Å.

Sequence of full-length mouse IGF1R (MmIGF1R), residues 1–1262, Y951A, D1107N (mouse) (Q60751 31-1292 Y981A/D1137N): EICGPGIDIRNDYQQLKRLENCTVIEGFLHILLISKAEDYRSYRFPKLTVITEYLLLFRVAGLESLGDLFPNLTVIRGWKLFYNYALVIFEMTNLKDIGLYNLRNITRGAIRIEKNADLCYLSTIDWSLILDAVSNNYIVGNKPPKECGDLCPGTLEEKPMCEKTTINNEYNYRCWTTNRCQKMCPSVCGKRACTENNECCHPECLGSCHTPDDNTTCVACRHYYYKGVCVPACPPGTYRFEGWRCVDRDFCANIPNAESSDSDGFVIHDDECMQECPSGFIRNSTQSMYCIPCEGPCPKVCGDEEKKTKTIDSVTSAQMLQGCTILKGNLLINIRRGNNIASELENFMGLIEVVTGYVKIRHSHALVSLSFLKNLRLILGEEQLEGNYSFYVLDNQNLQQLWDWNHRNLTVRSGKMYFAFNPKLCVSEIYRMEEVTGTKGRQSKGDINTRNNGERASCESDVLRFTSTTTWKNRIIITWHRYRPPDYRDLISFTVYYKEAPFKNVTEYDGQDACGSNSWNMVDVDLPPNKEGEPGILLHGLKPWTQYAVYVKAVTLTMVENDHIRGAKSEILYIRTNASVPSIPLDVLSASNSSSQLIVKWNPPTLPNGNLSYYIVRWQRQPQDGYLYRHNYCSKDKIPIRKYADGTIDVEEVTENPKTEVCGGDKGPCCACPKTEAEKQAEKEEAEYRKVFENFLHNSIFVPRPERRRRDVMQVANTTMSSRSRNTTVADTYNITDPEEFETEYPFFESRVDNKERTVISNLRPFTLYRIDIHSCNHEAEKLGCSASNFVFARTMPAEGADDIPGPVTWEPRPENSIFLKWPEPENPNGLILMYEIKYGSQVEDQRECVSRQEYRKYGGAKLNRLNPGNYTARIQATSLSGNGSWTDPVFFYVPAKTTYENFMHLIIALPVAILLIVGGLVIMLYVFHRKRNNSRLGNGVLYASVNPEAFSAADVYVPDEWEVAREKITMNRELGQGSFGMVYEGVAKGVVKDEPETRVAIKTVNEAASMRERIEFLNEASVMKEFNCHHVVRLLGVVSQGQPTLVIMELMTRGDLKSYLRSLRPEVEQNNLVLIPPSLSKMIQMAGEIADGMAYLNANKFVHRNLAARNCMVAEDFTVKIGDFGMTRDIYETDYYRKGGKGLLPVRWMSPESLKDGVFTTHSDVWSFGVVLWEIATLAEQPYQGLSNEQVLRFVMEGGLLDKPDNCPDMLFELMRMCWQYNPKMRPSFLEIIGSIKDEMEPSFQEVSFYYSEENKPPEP

Consider “human IGF1 (HsIGF1), mature, residues 49–118 (ligand)”, for which the stoichiometry N (IGF1 per IGF1R dimer) amounted to 1.
